Read-outs that look alike come from different tables or passages of the source.
Assays:
Assay in all cases: cell-based or functional assay
[1] = target: Influenza virus A/Brisbane/59/2007 (H1N1) (Influenza A virus A/Brisbane/59/2007 (H1N1))
[2] = target: Influenza virus A/Indonesia/5/2005/PR8-IBCDC-RG2 (H5N1) (Influenza A virus A/Indonesia/5/2005/PR8-IBCDC-RG2 (H5N1))
[3] = target: Influenza virus A/Okuda/1957 (H2N2) (Influenza A virus A/Okuda/1957 (H2N2))
[4] = target: Influenza virus A/Panama/2007/1999 (H3N2) (Influenza A virus A/Panama/2007/1999 (H3N2))
[5] = target: Influenza virus A/Suita/1/2009pdm (H1N1 2009 pandemic) (Influenza A virus A/Suita/1/2009pdm (H1N1pdm))
[6] = target: Influenza virus A/Brisbane/59/2007 (H1N1) (Influenza A virus A/Brisbane/59/2007 (H1N1)); remark: listed apart in the source
[7] = target: Influenza virus A/Indonesia/5/2005/PR8-IBCDC-RG2 (H5N1) (Influenza A virus A/Indonesia/5/2005/PR8-IBCDC-RG2 (H5N1)); remark: listed apart in the source
[8] = target: Influenza virus A/Okuda/1957 (H2N2) (Influenza A virus A/Okuda/1957 (H2N2)); remark: listed apart in the source
[9] = target: Influenza virus A/Panama/2007/1999 (H3N2) (Influenza A virus A/Panama/2007/1999 (H3N2)); remark: listed apart in the source
[10] = target: Influenza virus A/Suita/1/2009pdm (H1N1 2009 pandemic) (Influenza A virus A/Suita/1/2009pdm (H1N1pdm)); remark: listed apart in the source

F045-092 completely humanized IgG antibody (control anti-HA antibody)
Infection inhibition rate (%) [1]: 0%
Infection inhibition rate (%) at 0.002 µg/mL [1]: 0%
Infection inhibition rate (%) at 0.006 µg/mL [1]: 0%
Infection inhibition rate (%) at 0.024 µg/mL [1]: 0%
Infection inhibition rate (%) at 0.391 µg/mL [1]: 0%
Infection inhibition rate (%) at 1.6 µg/mL [1]: 0%
Infection inhibition rate (%) at 6.3 µg/mL [1]: 5.3%
Infection inhibition rate (%) at 25.0 µg/mL [1]: 24.4%
Infection inhibition rate (%) at 100.0 µg/mL [1]: 30.2%
Infection inhibition rate (%) at 200.0 µg/mL [1]: 58.4%
Infection inhibition rate (%) at 0.024 µg/mL [2]: 0%
Infection inhibition rate (%) at 0.391 µg/mL [2]: 0%
Infection inhibition rate (%) at 0.98 µg/mL [2]: 0%
Infection inhibition rate (%) at 1.6 µg/mL [2]: 0%
Infection inhibition rate (%) at 6.3 µg/mL [2]: 0%
Infection inhibition rate (%) at 25.0 µg/mL [2]: 14.3%
Infection inhibition rate (%) at 100.0 µg/mL [2]: 28.2%
Infection inhibition rate (%) at 200.0 µg/mL [2]: 38.6%
Infection inhibition rate (%) [3]: 0%
Infection inhibition rate (%) at 0.024 µg/mL [3]: 0%
Infection inhibition rate (%) at 0.391 µg/mL [3]: 0%
Infection inhibition rate (%) at 1.6 µg/mL [3]: 0%
Infection inhibition rate (%) at 6.3 µg/mL [3]: 0%
Infection inhibition rate (%) at 25.0 µg/mL [3]: 0%
Infection inhibition rate (%) at 100.0 µg/mL [3]: 15.8%
Infection inhibition rate (%) at 200.0 µg/mL [3]: 39.4%
Infection inhibition rate (%) [4]: 0%
Infection inhibition rate (%) at 0.391 µg/mL [4]: 1.9%
Infection inhibition rate (%) at 1.6 µg/mL [4]: 31.4%
Infection inhibition rate (%) at 6.3 µg/mL [4]: 42.9%
Infection inhibition rate (%) at 25.0 µg/mL [4]: 96.7%
Infection inhibition rate (%) at 100.0 µg/mL [4]: 99%
Infection inhibition rate (%) at 200.0 µg/mL [4]: 99.5%
Infection inhibition rate (%) [5]: 0%
Infection inhibition rate (%) at 0.002 µg/mL [5]: 0%
Infection inhibition rate (%) at 0.006 µg/mL [5]: 0%
Infection inhibition rate (%) at 0.024 µg/mL [5]: 4.2%
Infection inhibition rate (%) at 0.391 µg/mL [5]: 4.2%
Infection inhibition rate (%) at 1.6 µg/mL [5]: 0%
Infection inhibition rate (%) at 6.3 µg/mL [5]: 6%
Infection inhibition rate (%) at 25.0 µg/mL [5]: 0%
Infection inhibition rate (%) at 100.0 µg/mL [5]: 16.1%
Infection inhibition rate (%) at 200.0 µg/mL [5]: 15.1%

B1: F081-007 completely humanized IgG antibody (antibody, V domains shown)
VH: QVQLQQSGAEVKKPGSSVKVSCKASGGIFRKNAISWVRQAPGQGLEWMGGISAIFGTANYAQKFQGRVTITADESSNTVYMDLSRLRSEDTAIYYCASHPTYHFDKSGYRFDSWGQGTLVTVSS
VL: QSVLTQPPSVSAAPGQKVTISCSGSSSNIGNNYVSWYQQLPGTAPKLLIYDNNKRPSGIPDRFSGSKSGTSATLGITGLQTGDEADYYCGTWDSSLSAGVFGGGTKLTVLG
Infection inhibition rate (%) [6]: 36.3%
Infection inhibition rate (%) at 0.002 µg/mL [6]: 0%
Infection inhibition rate (%) at 0.006 µg/mL [6]: 9.9%
Infection inhibition rate (%) at 0.024 µg/mL [6]: 27.9%
Infection inhibition rate (%) at 0.391 µg/mL [6]: 59.2%
Infection inhibition rate (%) at 1.6 µg/mL [6]: 82.4%
Infection inhibition rate (%) at 6.3 µg/mL [6]: 90.1%
Infection inhibition rate (%) at 25.0 µg/mL [6]: 100%
Infection inhibition rate (%) at 100.0 µg/mL [6]: 100%
Infection inhibition rate (%) at 200.0 µg/mL [6]: 100%
IC50 of neutralization [7]: 0.36 µg/mL
Infection inhibition rate (%) [7]: 10.2%
Infection inhibition rate (%) at 0.024 µg/mL [7]: 7%
Infection inhibition rate (%) at 0.391 µg/mL [7]: 55.3%
Infection inhibition rate (%) at 1.6 µg/mL [7]: 85.1%
Infection inhibition rate (%) at 6.3 µg/mL [7]: 100%
Infection inhibition rate (%) at 25.0 µg/mL [7]: 100%
Infection inhibition rate (%) at 100.0 µg/mL [7]: 100%
Infection inhibition rate (%) at 200.0 µg/mL [7]: 100%
Infection inhibition rate (%) at 0.024 µg/mL [8]: 0%
Infection inhibition rate (%) at 0.391 µg/mL [8]: 37.2%
Infection inhibition rate (%) at 0.98 µg/mL [8]: 16.5%
Infection inhibition rate (%) at 1.6 µg/mL [8]: 79%
Infection inhibition rate (%) at 6.3 µg/mL [8]: 92.6%
Infection inhibition rate (%) at 25.0 µg/mL [8]: 98.2%
Infection inhibition rate (%) at 100.0 µg/mL [8]: 98.9%
Infection inhibition rate (%) at 200.0 µg/mL [8]: 98.9%
Infection inhibition rate (%) [9]: 0%
Infection inhibition rate (%) at 0.391 µg/mL [9]: 0%
Infection inhibition rate (%) at 1.6 µg/mL [9]: 0%
Infection inhibition rate (%) at 6.3 µg/mL [9]: 0%
Infection inhibition rate (%) at 25.0 µg/mL [9]: 0%
Infection inhibition rate (%) at 100.0 µg/mL [9]: 0%
Infection inhibition rate (%) at 200.0 µg/mL [9]: 0%
Infection inhibition rate (%) [10]: 49.8%
Infection inhibition rate (%) at 0.002 µg/mL [10]: 29.3%
Infection inhibition rate (%) at 0.006 µg/mL [10]: 32%
Infection inhibition rate (%) at 0.024 µg/mL [10]: 45.3%
Infection inhibition rate (%) at 0.391 µg/mL [10]: 83.1%
Infection inhibition rate (%) at 1.6 µg/mL [10]: 96.8%
Infection inhibition rate (%) at 6.3 µg/mL [10]: 100%
Infection inhibition rate (%) at 25.0 µg/mL [10]: 100%
Infection inhibition rate (%) at 100.0 µg/mL [10]: 100%
Infection inhibition rate (%) at 200.0 µg/mL [10]: 100%

B2: F083-336 completely humanized IgG antibody (antibody, V domains shown)
VH: QVQLQQSGAEVKQPGSSVKVSCKASGGIFRSNAISWVRQAPGQGLEWMGGIVALFGTANYAQKFQGRVTITADESTSTVYMELSSLRSEDTARYYCARNSGYHISGFYLDYWGQGTLVTVSS
VL: EIVLTQSPSSLSASVGDRVTITCRASQGISNYLAWYQQRPGKVPKLLIYTASTLLSGVPSRFSGGGSGTDYTLTISSLQPEDVATYYCQEYKSVPLTFGPGTKVEIK
Infection inhibition rate (%) at 0.002 µg/mL [6]: 2.3%
Infection inhibition rate (%) at 0.006 µg/mL [6]: 7.3%
Infection inhibition rate (%) at 0.024 µg/mL [6]: 11.1%
Infection inhibition rate (%) at 0.391 µg/mL [6]: 42.4%
Infection inhibition rate (%) at 0.98 µg/mL [6]: 32.4%
Infection inhibition rate (%) at 1.6 µg/mL [6]: 72.1%
Infection inhibition rate (%) at 6.3 µg/mL [6]: 90.5%
Infection inhibition rate (%) at 25.0 µg/mL [6]: 97.3%
Infection inhibition rate (%) at 100.0 µg/mL [6]: 100%
Infection inhibition rate (%) at 200.0 µg/mL [6]: 100%
Infection inhibition rate (%) [7]: 1%
Infection inhibition rate (%) at 0.024 µg/mL [7]: 0%
Infection inhibition rate (%) at 0.391 µg/mL [7]: 22.1%
Infection inhibition rate (%) at 1.6 µg/mL [7]: 40.5%
Infection inhibition rate (%) at 6.3 µg/mL [7]: 66.4%
Infection inhibition rate (%) at 25.0 µg/mL [7]: 86.7%
Infection inhibition rate (%) at 100.0 µg/mL [7]: 89.3%
Infection inhibition rate (%) at 200.0 µg/mL [7]: 98.5%
Infection inhibition rate (%) [8]: 2.5%
Infection inhibition rate (%) at 0.024 µg/mL [8]: 0%
Infection inhibition rate (%) at 0.391 µg/mL [8]: 19.9%
Infection inhibition rate (%) at 1.6 µg/mL [8]: 39.8%
Infection inhibition rate (%) at 6.3 µg/mL [8]: 81.5%
Infection inhibition rate (%) at 25.0 µg/mL [8]: 86.7%
Infection inhibition rate (%) at 100.0 µg/mL [8]: 85.9%
Infection inhibition rate (%) at 200.0 µg/mL [8]: 98.9%
Infection inhibition rate (%) [9]: 2.9%
Infection inhibition rate (%) at 0.391 µg/mL [9]: 4.8%
Infection inhibition rate (%) at 1.6 µg/mL [9]: 0%
Infection inhibition rate (%) at 6.3 µg/mL [9]: 0%
Infection inhibition rate (%) at 25.0 µg/mL [9]: 0%
Infection inhibition rate (%) at 100.0 µg/mL [9]: 0%
Infection inhibition rate (%) at 200.0 µg/mL [9]: 0%
Infection inhibition rate (%) [10]: 30.7%
Infection inhibition rate (%) at 0.002 µg/mL [10]: 0%
Infection inhibition rate (%) at 0.006 µg/mL [10]: 13.8%
Infection inhibition rate (%) at 0.024 µg/mL [10]: 30.7%
Infection inhibition rate (%) at 0.391 µg/mL [10]: 62.1%
Infection inhibition rate (%) at 1.6 µg/mL [10]: 93.2%
Infection inhibition rate (%) at 6.3 µg/mL [10]: 100%
Infection inhibition rate (%) at 25.0 µg/mL [10]: 100%
Infection inhibition rate (%) at 100.0 µg/mL [10]: 100%
Infection inhibition rate (%) at 200.0 µg/mL [10]: 100%

Source: patent US20160200799A1
